Source: EP0629133B1, “PEPTIDE-METAL ION PHARMACEUTICAL APPLICATIONS” (Rhomed, Incorporated, priority 1992, dated 1993)
Like-named read-outs stand apart in the source and are kept apart here. Ends that are not written are not given here.

Legend:
whole blood clots = assay: In vitro binding of 99mTc-YIGSR-containing peptide to whole blood clots; assay type: cell-based, human; conditions: 90 minutes, 0.5 ml of whole blood clots, 0.4 to 50 µg of radiolabelled peptide
Procedure: (§1) In other experiments, the peptide of Example 12, labelled as in Example 13, was used for in vitro binding studies. In these studies, the ^99mTc-YIGSR-containing peptide was incubated for 90 minutes with either 0.5 ml of whole blood clots, using from 0.4 to 50 µg of radiolabelled peptide, or with approximately 10^7 platelets, using from 2 to 200 µg of radiolabelled peptide.

[1] = Clearance rates of 99mTc-YIGSR-peptide (plasma, urine, bile; cannulated animals); assay type: in vivo, adult female Sprague-Dawley rats
Procedure: The clearance rates of the ^99mTc-YIGSR-peptide of Example 12 was evaluated in adult female Sprague-Dawley rats at 2 hours after injection. Each experimental group was composed of three animals. Each animal was anaesthetised with ketamine and the bile duct and bladder were cannulated. Blood was collected over various periods of time from the jugular vein. […] In biodistribution studies, the highest amount of radioactivity was found in the kidneys, and is consistent with the rat clearance data. No major accumulation of radioactivity was found in any organ examined (other than kidney), and at later times (2 and 4 hours post injection) no re-distribution of the radiolabel was noted.

thromboembolism = assay: Diagnostic imaging of thrombosis in a patient (gamma scintigraphy or SPECT); assay type: in vivo; conditions: kit of Examples 12, 18, 19, or 20, i.v., imaged at 30 minute intervals
Procedure: A kit of Examples 12, 18, 19, or 20 is used in to localise thromboembolism in a patient. After radiolabelling with ^99mTc as in Example 13, the ^99mTc-YIGSR-peptide is injected intravenously. Starting immediately upon injection, the patient is imaged, using conventional gamma scintigraphy or SPECT imaging, and is imaged at 30 minute intervals thereafter.

platelets = assay: In vitro binding of 99mTc-YIGSR-containing peptide to platelets; assay type: cell-based, human; conditions: 90 minutes, approximately 10^7 platelets, 2 to 200 µg of radiolabelled peptide
Procedure: as §1

[2] = Biodistribution of 99mTc-YIGSR-peptide after tail vein injection; assay type: in vivo, adult female Swiss-Webster mice; conditions: biodistribution studies
Procedure: The biodistribution of the ^99mTc-YIGSR-peptide of Example 12 was evaluated in adult female Swiss-Webster mice (approximately 19 g) at selected times (10, 30, and 120 minutes) after injection into the tail vein. Each experimental group was composed of at least five animals, with each animal receiving 0.1 ml containing 5 µg of peptide (1 µCi/µg). Animals were sacrificed by Halothane overdose, and selected organs dissected, weighed, and associated radioactivity determined. Data were analysed using a computer program specifically designed for ^99mTc-labelled preparations. The percent dose per organ for blood, bone, and muscle were calculated assuming 7, 8.2, and 40% of total body weight, respectively, for these tissues.

[3] = Biodistribution after pre-incubation of 99mTc-YIGSR-peptide in whole human blood; assay type: in vivo, mice; conditions: pre-incubated 30 minutes in whole human blood, compared with no incubation in blood
Procedure: (§2) Some studies involved pre-incubation of the ^99mTc-YIGSR-peptide in whole blood prior to injection and determination of biodistribution (Table 7). In these studies, whole human blood was obtained from a healthy adult donor and collected into Vacutainer tubes containing EDTA. After mixing to insure proper dissolution of the EDTA, approximately 2.5 ml of the whole blood was removed and mixed with 0.25 ml of ^99mTc-YIGSR-peptide. The mixture was allowed to incubate 30 minutes at room temperature. After 30 minutes, aliquots of 0.1 ml were injected into the tail vein of the mice. The amount of radioactivity in the circulation for ^99mTc-YIGSR-peptide of Example 12 pre-incubated in whole blood was similar to that in animals receiving ^99mTc-YIGSR-peptide without incubation in blood.

[4] = design: species or system tight-skin (Tsk) mouse; conditions: mouse, in vivo
Text: Biodistribution was also studied in a lung disease model which used tight-skin mice with genetic emphysema. The tight-skin (Tsk) mouse is a genetic mutant caused by a dominant gene deficiency of serum anti-elastase. Heterozygous (Tsk/+) animals show multiple skin connective tissue abnormalities resembling scleroderma as well as an increased growth of cartilage, bone, and small tendons with hyperplasia of the tendon sheaths. The Tsk trait is associated with progressive pulmonary emphysema and development of right ventricular hypertrophy, as well as with lung collagen changes. These mice, as well as genetic control mice (pallid), were obtained from The Jackson Laboratory (Bar Harbor, ME). The relative localisation of ^99mTc-IKVAV-peptide of Example 4 at all time points examined (10, 30, and 120 minutes post-injection), was decreased in the lungs of animals with emphysema relative to paired control animals.

[5] = freshly radiolabelled
[6] = design: species or system adult female Fischer 344 rats; conditions: rat, in vivo
Procedure: The clearance rates of the ^99mTc-IKVAV-containing peptide of Example 4 was evaluated in adult female Fischer 344 rats at 2 hours after injection. Each experimental group was composed of three animals. Each animal was anaesthetised with ketamine and the bile duct and bladder were cannulated. Blood was collected over various periods of time from the jugular vein.

[7] = design: species or system mice; conditions: mouse, in vivo
Procedure: as §2, with “^99mTc-IKVAV-containing peptide” for “^99mTc-YIGSR-peptide”, “biodistribution.” for “biodistribution (Table 7).”, “adult male” for “adult”, “^99mTc-peptide.” for “^99mTc-YIGSR-peptide.”, “^99mTc-IKVAV-containing peptide” for “^99mTc-YIGSR-peptide of Example 12”, “higher than” for “similar to that”

| Substance | binding to whole blood clots (whole blood clots) | bile clearance ([1]; at two hours) [%] | injected doses cleared through urine ([1]; at two hours) [%] | clearance rate from the plasma ([1]; rats) [mL/min] | appearance of sites of thromboembolism by scintigraphy (thromboembolism) | binding to platelets (platelets) | organ with the highest amount of radioactivity [2] | amount of radioactivity in the circulation [3] | relative localisation in the lungs [4] | particles under a phase contrast microscope [5] | bile clearance [6] [%] | clearance rate from the plasma [6] [mL/min] | injected dose cleared through urine [6] [%] | amount of radioactivity in the circulation [7] | lung uptake [7] |
| --- | --- | --- | --- | --- | --- | --- | --- | --- | --- | --- | --- | --- | --- | --- | --- |
| H-CDPGYIGSR [^99mTc-YIGSR-peptide] | dose-response relationship | 6.9 ± 0.3 | 31.2 ± 9.1 | 2.6 | photon-rich image locations | dose-response relationship | kidneys | similar |  |  |  |  |  |  |  |
| CSRARKQAASIKVAVSADR [^99mTc-IKVAV-containing peptide] |  |  |  |  |  |  |  |  | decreased | No particles were visible | 0.9 ± 0.3 | 2.4 | 10.8 ± 4.9 | higher | significantly decreased |
